Assay results reported in paper PMC6737233, “A novel epitope-presenting thermostable scaffold for the development of highly specific insulin-like growth factor-1/2 antibodies” (The Journal of Biological Chemistry, 2019).

What was measured:
[1] = biological target: T1, human recombinant IGF-1 (insulin-like growth factor 1) (Homo sapiens (Human)., UniProt P05019); assay: SPR; Biacore T200, 25 °C, HBS-EP (10 mM HEPES pH 7.4, 150 mM NaCl, 1 mM EDTA, 0.05% Tween 20); mAb from clone culture supernatant captured by immobilised polyclonal rabbit anti-mouse IgG on CM5; analytes injected at 90, 30, 10, 3.3, 1.1, 0 nM, in triplicate; dissociation 5, 30 or 120 min (IGF-1 on anti–IGF-1: 120 min); 1:1 Langmuir fit; conditions: one partner purified
T1 construct: insulin-like growth factor 1, human, mature 70-amino acid polypeptide hormone (7.7 kDa; 7.6-kDa recombinant analyte); loop positions 74–90 are counted on UniProtKB P05019; Two suppliers are named (PeproTech for SPR, Roche Penzberg for ECLIA); They are kept as one molecule because both are recombinant mature human IGF-1; also called mature human IGF-1; source: bought: PeproTech (100-11) (SPR); …
T1 sequence (P05019 49-118): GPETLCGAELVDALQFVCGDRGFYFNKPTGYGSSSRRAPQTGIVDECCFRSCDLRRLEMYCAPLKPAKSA

TtSlyD-IGF-1(74–90) = biological target: T2, TtSlyD-IGF-1(74–90) (Thermus thermophilus (strain ATCC …)); assay: as above; conditions: one partner purified
T2 construct: Thermus thermophilus SlyD, FKBP domain upstream of the insertion site (Nt-SlyD-FKBP); the printed cell begins with the MRGS tag, which replaces Met1; single glycine linker; human IGF-1 loop, positions 74–90 of UniProtKB P05019, grafted in place of the IF domain (TtSlyD residues 67–121); Thermus thermophilus SlyD, FKBP domain downstream of the insertion site (Ct-SlyD-FKBP), from Ala122; The SPR …
T2 chain: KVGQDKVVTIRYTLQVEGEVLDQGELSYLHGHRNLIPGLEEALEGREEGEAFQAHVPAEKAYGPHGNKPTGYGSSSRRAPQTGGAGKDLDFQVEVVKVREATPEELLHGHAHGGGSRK

[2] = biological target: T1, human recombinant IGF-1 (insulin-like …); assay: as above; conditions: one partner purified; remark: listed apart in the source
[3] = biological target: T3, human recombinant IGF-2 (insulin-like growth factor 2) (Homo sapiens (Human)., UniProt P01344); assay: as above; conditions: one partner purified
T3 construct: insulin-like growth factor 2, human, mature 67-amino acid peptide (7.5 kDa; 7.2-kDa recombinant analyte); loop positions 53–65 are counted on UniProtKB P01344; also called mature IGF-2; source: bought: PeproTech (100-12)
T3 sequence (P01344 25-91): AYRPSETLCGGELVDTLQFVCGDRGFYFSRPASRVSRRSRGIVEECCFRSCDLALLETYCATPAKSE

[4] = biological target: T4, IGF-1 linear sequence stretch Lys75 to Arg84 (on 15-mer array peptides) (Homo sapiens (Human).); assay: peptide or protein array; Intavis CelluSpots slides with 15-mer peptides (off-set 1) of human IGF-1, and an alanine scan; 1 μg/ml antibody in TBST, ambient temperature, 2 h; HRP secondary antibody, chemiluminescence
T4 construct: human IGF-1, stretch Lys75–Arg84 (numbers on UniProtKB P05019), mapped with 15-mer peptides off-set by 1 amino acid; The peptides on the array were 15 amino acids long; source: synthetic peptide, spotted on Intavis CelluSpots glass slides
T4 chain: KPTGYGSSSR

Kd [1]: 0.0055 nM
koff [1]: 1.7e-05 s⁻¹
kon [1]: 3e+06 M⁻¹ s⁻¹
Kd (TtSlyD-IGF-1(74–90)): 0.031 nM
koff (TtSlyD-IGF-1(74–90)): 2.8e-05 s⁻¹
kon (TtSlyD-IGF-1(74–90)): 920000 M⁻¹ s⁻¹
t1/2 diss [2]: 11.3 h
binding result [3]: no binding (tested: 90 nM)
binding result [4]: binds
B1: mAb anti–IGF-1(74–90) (antibody, V domains shown)
VH: QVQLQQSGAELVRPGSSVKISCKASGYAFSNLWMNWVKQRPGQGLEWIGQIYPGDGDTNYYGDFKGKATLTADSSSSTAYMQLSRLTSEDSAVYFCARIGYYGMDYWGQGTSVTVSS
VL: DVVLTQTPLSLPVNIGDEASISCKSTKSLLSSDGLTYLDWYLQKPGQSPQVLIYLVSNRFSGVPDRFSGSGSGTDFTLKISRVEAEDLGVYYCFQSNYLPTFGAGTKLELK
notes: Murine monoclonal antibody raised with TtSlyD-IGF-1(74–90); In the ECLIA it stood as a biotinylated or ruthenylated conjugate (lysine ε-amino groups); also called mAb IGF-1(74–90); anti–IGF-1 antibody; source: mouse hybridoma; clone culture supernatant captured on the sensor (SPR); purified from the cell culture supernatant (immunoconjugates for ECLIA)
